# Experimental data from US20240158494A1 (Biogen, published 2024).
# Target: T1, mouse transferrin receptor (TfR1) (mouse, UniProt Q62351 1-763, limits assumed)
# T1 construct: form and assay not described; also called mouse TfR
# Assay: not described
# T1 sequence (Q62351 whole entry): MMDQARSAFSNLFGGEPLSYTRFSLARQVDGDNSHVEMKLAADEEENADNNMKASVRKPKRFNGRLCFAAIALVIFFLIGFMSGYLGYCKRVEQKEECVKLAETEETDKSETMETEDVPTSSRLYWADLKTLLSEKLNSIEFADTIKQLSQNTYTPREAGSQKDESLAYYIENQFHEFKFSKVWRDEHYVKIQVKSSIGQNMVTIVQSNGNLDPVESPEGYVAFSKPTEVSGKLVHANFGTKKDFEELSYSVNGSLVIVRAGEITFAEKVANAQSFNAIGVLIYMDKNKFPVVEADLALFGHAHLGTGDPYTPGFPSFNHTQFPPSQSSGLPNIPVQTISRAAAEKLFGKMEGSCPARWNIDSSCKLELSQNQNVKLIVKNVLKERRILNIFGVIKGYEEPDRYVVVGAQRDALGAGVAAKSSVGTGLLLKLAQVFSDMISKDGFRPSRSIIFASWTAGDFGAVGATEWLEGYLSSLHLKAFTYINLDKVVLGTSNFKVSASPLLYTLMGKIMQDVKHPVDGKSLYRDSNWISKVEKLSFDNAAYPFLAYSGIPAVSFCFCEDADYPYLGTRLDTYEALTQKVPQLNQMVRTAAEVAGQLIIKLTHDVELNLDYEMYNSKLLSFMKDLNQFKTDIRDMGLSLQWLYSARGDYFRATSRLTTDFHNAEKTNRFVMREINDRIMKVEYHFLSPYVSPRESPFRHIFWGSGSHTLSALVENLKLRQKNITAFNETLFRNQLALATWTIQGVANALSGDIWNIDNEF
binder,measurement,value
"TfR1 ANTIBODY-A HC-H2C hIgG4Fab/LC-L0 hKappa (ΔC214) (Fab, V domains shown, also called exemplary antibody (ii)) VH: QSLVESGGGLVQPGGSLRLSCAASGIDFSSSGYMCWVRQAPGKGLEWVGCIYTYSSNTYYAASVKGRFTISKTSSTTVYLQMNSLKTEDTAVYYCARGTYGYTGYTYTMGYFSLWGQGTLVTVSS VL: DIQMTQSPSTLSASVGDRVTITCQASQNINSYLAWYQQKPGKAPKLLIYRASSLESGVPSRFSGSGSGTEFTLTISSLQPDDFATYYCQSYYYSGSSNYNAFGGGTKVEIKR",binding result,no binding
